Among the data in patent US20180155451A1 (published 2018) are Kd values, retold here.

Substitutions are numbered along the chain they refer to.

The chains are these.
B1: H240-FA024/H240-FB084/L73-k0 (antibody, human IgG1, kappa)
heavy 1: QDQLVQSGAEVKKPGASVKVSCKASGFNIKDTYIQWVRQAPGQGLEWMGRIDPLRKQTKYREKFEGRVTITADTSTNTAYMELSSLRSEDTAVYYCVRSGREFDYWGQGTLVTVSSASTKGPSVFPLAPSSKSTSGGTAALGCLVKDYFPEPVTVSWNSGALTSGVHTFPAVLQSSGLYSLSSVVTVPSSSLGTKTYTCNVNHKPSNTKVDKKVEPKSCDKTHTCPPCPAPEYYWGPSVFLFPPKPKDTLMISRTPEVTCVVVDVSDEEPKVKFNWYVDGVEVHNAKTKPREEQYNATYRVVSVLTVLHQDWLNGKEYKCKVSNKALPAPIEKTISKAKGQPREPQVYTLPPSRKEKTKNQVSLTCLVKGFYPSDIAVEWESNGQPENNYKTTPPVLDSDGSFFLYSKLTVDKSRWQQGNVFSCSVMHEALHNRYTQKSLSLSP
heavy 2: QDQLVQSGAEVKKPGASVKVSCKASGFNIKDTYIQWVRQAPGQGLEWMGRIDPLRKQTKYREKFEGRVTITADTSTNTAYMELSSLRSEDTAVYYCVRSGREFDYWGQGTLVTVSSASTKGPSVFPLAPSSKSTSESTAALGCLVEDYFPEPVTVSWNSGALTSGVHTFPAVLQSSGLYSLSSVVTVPSSNFGTQTYTCNVDHKPSNTKVDKTVEPKSCDKTHTCPPCPAPELLGGPSVFLFPPKPKDTLMISRTPEVTCVVVDVSHEEPEVQFNWYVDGVEVHNAETKPREEQYNSTYRVVSVLTVLHQDWLNGKEYKCKVSNDALPMPIEETISKAKGQPREPQVYTLPPSREEMTKNQVSLTCLVKGFYPSDIAVEWESEGQPENNYKTTPPVLDSDGSFFLYSKLTVDKSRWQQGNVFSCSVMHEALHNHYTQESLSLSP
light: DIQMTQSPSSLSASVGDRVTITCRASQDIHKYIAWYQQKPGQAPRLLIQYTSTLQPGVPSRFSGSGSGTDYTFTISSLQPEDIATYYCLQYEQLRTFGGGTKVEIKRTVAAPSVFIFPPSDEQLKSGTASVVCLLNNFYPREAKVQWKVDNALQSGNSQESVTEQDSKDSTYSLSSTLTLSKADYEKHKVYACEVTHQGLSSPVTKSFNRGEC
notes: Heterodimerized anti-EREG IgG1 antibody; A chain altered from H240-AK072, B chain altered from H240-BH076
B2: H240-FA024/H240-FB065/L73-k0 (antibody, human IgG1, kappa)
heavy 1: B1 heavy 1
heavy 2: B1 heavy 2 with E146K, E383N
light: B1 light
notes: as for B1
B3: H240-FA030/H240-FB084/L73-k0 (antibody, human IgG1, kappa)
heavy 1: B1 heavy 1 with K357M
heavy 2: B1 heavy 2
light: B1 light
notes: as for B1
B4: H240-FA030/H240-FB083/L73-k0 (antibody, human IgG1, kappa)
heavy 1: B1 heavy 1 with K357M
heavy 2: B1 heavy 2 with E383N
light: B1 light
notes: as for B1
B5: H240-FA030/H240-FB082/L73-k0 (antibody, human IgG1, kappa)
heavy 1: B1 heavy 1 with K357M
heavy 2: B1 heavy 2 with E136G, S137E, N191S, F192L, T198I, D202N, T213K
light: B1 light
notes: as for B1
B6: H240-FA009/H240-FB001/L73-k0 (antibody, human IgG1, kappa)
heavy 1: B1 heavy 1 with T198I, K271E, K357M
heavy 2: B1 heavy 2 with E136G, S137G, E146K, N191S, F192L, T198I, D202N, T213K, E287K, E383N
light: B1 light
notes: as for B1
B7: H240-FA009/H240-FB016/L73-k0 (antibody, human IgG1, kappa)
heavy 1: B1 heavy 1 with T198I, K271E, K357M
heavy 2: B1 heavy 2 with E136G, S137G, E146K, N191S, F192L, T198I, T213K, E287K, E383N
light: B1 light
notes: as for B1
B8: H240-FA009/H240-FB021/L73-k0 (antibody, human IgG1, kappa)
heavy 1: B1 heavy 1 with T198I, K271E, K357M
heavy 2: B1 heavy 2 with E136G, S137G, E146K, N191S, F192L, T198I, D202N, T213K, E383N
light: B1 light
notes: as for B1
B9: H240-FA009/H240-FB015/L73-k0 (antibody, human IgG1, kappa)
heavy 1: B1 heavy 1 with T198I, K271E, K357M
heavy 2: B1 heavy 2 with S137G, E146K, N191S, F192L, T198I, D202N, T213K, E287K, E383N
light: B1 light
notes: as for B1
B10: H240-FA009/H240-FB017/L73-k0 (antibody, human IgG1, kappa)
heavy 1: B1 heavy 1 with T198I, K271E, K357M
heavy 2: B1 heavy 2 with S137G, E146K, N191S, F192L, T198I, T213K, E287K, E383N
light: B1 light
notes: as for B1
B11: H240-FA009/H240-FB020/L73-k0 (antibody, human IgG1, kappa)
heavy 1: B1 heavy 1 with T198I, K271E, K357M
heavy 2: B1 heavy 2 with E136G, S137G, N191S, F192L, T198I, D202N, T213K, E287K, E383N
light: B1 light
notes: as for B1

T6 sequence (P08637 17-208 F176V): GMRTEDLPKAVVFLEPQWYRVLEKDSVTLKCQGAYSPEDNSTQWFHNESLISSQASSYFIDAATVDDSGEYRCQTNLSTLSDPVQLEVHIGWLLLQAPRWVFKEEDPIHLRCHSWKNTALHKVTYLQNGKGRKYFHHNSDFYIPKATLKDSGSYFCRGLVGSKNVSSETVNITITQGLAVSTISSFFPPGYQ

For the first experiment, the target named is T1, FcγRIa extracellular domain with C-terminal His tag (human, UniProt P12314 16-292).
T1 construct: extracellular domain; also called FcgRI; FcgRIa; not shown: His tag at the C terminus
T1 sequence (P12314 16-292): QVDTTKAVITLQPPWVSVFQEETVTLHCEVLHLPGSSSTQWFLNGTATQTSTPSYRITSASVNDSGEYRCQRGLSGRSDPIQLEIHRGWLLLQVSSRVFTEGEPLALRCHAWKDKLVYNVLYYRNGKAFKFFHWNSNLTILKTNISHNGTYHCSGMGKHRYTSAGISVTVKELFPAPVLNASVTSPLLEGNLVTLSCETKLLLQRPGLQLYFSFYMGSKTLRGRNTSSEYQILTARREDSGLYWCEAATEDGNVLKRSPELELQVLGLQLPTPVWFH
Kind of experiment: SPR (Biacore), antibody captured on chip, soluble FcgR as analyte; experiment 1. As for the experimental part:
(§1) Antibodies of interest were analyzed for the interaction to FcgR according to the method described in Reference Example 8.
(§2) Analysis of interaction between obj ective antibody and the FcγR was carried out using Biacore T100 (GE Healthcare), Biacore T200, Biacore A100, and Biacore 4000. HBS-EP+ (GE Healthcare) was used as the running buffer, and the measurement temperature was set to 25° C. Chips produced by immobilizing the antigen peptide by the amine coupling method to a Series S sensor Chip CM5 (GE Healthcare), chips produced by allowing preliminarily biotinylated antigen peptides to interact with and immobilize onto a Series S Sensor Chip SA (certified) (GE Healthcare), chips produced by immobilizing Protein L (ACTIGEN, BioVision) to Series S Sencor Chip CM5 (GE Healthcare), or chips produced by immobilizing Protein A/G (Thermo Scientific) to Series S Sencor Chip CM5 (GE Healthcare) were used. Antibodies of interest were captured onto these chips, and allowed to interact to each FcγR diluted with running buffer. To regenerate and repeatedly use the chip, the antibodies captured onto the chip were washed off by reacting 10 mM glycine-HCl, pH 1.5.
The Kd is a measure of binding affinity in units of concentration. High values mean a looser complex, low ones a tighter complex. With B1, the Kd came out at 0.095 nM.

Molecule B2 displayed a Kd of 0.15 nM.

For the molecule B3, the affinity, expressed as Kd, was 0.12 nM.

Molecule B4 had a Kd of 0.081 nM.

In turn, B5 registered a Kd of 0.092 nM.

For the next experiment, the target named is T2, FcγRIIa R type extracellular domain with C-terminal His tag (human, UniProt P12318 34-217).
T2 construct: extracellular domain; also called FcgRIIa R; FcgRIIaR; not shown: His tag at the C terminus
T2 sequence (looked up): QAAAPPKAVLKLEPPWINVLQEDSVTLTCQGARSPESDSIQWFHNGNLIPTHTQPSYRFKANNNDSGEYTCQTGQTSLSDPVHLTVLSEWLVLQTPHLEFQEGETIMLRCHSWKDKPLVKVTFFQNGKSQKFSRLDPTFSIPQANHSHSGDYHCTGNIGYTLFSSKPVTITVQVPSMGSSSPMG
Described as above. The protocol:
as §1, §2
For B1, the affinity, expressed as Kd, was 250 nM.

The molecule B2 displayed a Kd of 300 nM.

The molecule B3 displayed a Kd of 270 nM.

As to B4, the Kd stood at 280 nM.

Consider B5, for which the Kd came out at 300 nM.

The next experiment has as its target T3, FcγRIIa H type extracellular domain with C-terminal His tag (human, UniProt P12318 34-217).
T3 construct: extracellular domain; also called FcgRIIa H; FcgRIIaH; not shown: His tag at the C terminus
T3 sequence (looked up): T2 sequence (looked up) with R134H
Described as above. As for the experimental part:
as §1, §2
The molecule B1 registered a Kd of 79 nM.

For B2, the Kd turned out to be 95 nM.

For the molecule B3, binding was put at a Kd of 88 nM.

With B4, binding was put at a Kd of 82 nM.

For B5, the Kd was 88 nM.

Another experiment concerns the target T4, FcγRIIb extracellular domain with C-terminal His tag (human, UniProt P31994 43-217).
T4 construct: extracellular domain; also called FcgRIIb; 2b; not shown: His tag at the C terminus
T4 sequence (looked up): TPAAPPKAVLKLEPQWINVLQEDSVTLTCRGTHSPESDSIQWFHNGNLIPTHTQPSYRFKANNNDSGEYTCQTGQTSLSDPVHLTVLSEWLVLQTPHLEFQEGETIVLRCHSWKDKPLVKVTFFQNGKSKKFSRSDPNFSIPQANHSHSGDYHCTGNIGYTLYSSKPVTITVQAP
The description is as above. The protocol:
as §1, §2
For the molecule B1, the Kd is 1500 nM.

Take B2: the Kd worked out at 1700 nM.

On to B3, for which the Kd came to 2500 nM.

Molecule B4 returned a dissociation constant (Kd) of 1500 nM.

Molecule B5 yielded a dissociation constant (Kd) of 1900 nM.

The next experiment deals with T5, FcγRIIIa F type extracellular domain with C-terminal His tag (human, UniProt P08637 17-208).
T5 construct: extracellular domain; also called FcgRIIIa F; FcgRIIIaF; not shown: His tag at the C terminus
T5 sequence (P08637 17-208): as the sequence (P08637 17-208 F176V) above, with V160F counted along it
The description is as above. The protocol:
as §1, §2
The molecule B1 came in with a Kd of 4.6 nM.

B2 registered a Kd of 5 nM.

B3: binding was characterised by a dissociation constant (Kd) of 4.2 nM.

Turning to B4, the Kd came out at 3.9 nM.

For B5, the Kd amounted to 4.3 nM.

A further experiment addresses T6, FcγRIIIa V type extracellular domain with C-terminal His tag (human, UniProt P08637 17-208).
T6 construct: extracellular domain; also called FcgRIIIa V; FcgRIIIaV; not shown: His tag at the C terminus
The experiment is described as above. The protocol: as §1, §2
Turning to B1, the Kd was 1.2 nM.

B2: binding was put at a Kd of 1.4 nM.

Regarding B3, the Kd is 1.3 nM.

As to B4, the Kd was 1.2 nM.

In turn, B5 returned a Kd of 1.3 nM.

For the next experiment, the target named is T1, FcγRIa extracellular domain with …. In words: SPR (Biacore), antibody captured on chip, soluble FcgR as analyte; experiment 2. The protocol: as §1, §2
(In SPR one partner is held on a chip, and binding of the other changes the refractive index at the surface.)
Molecule B6 yielded a Kd of 0.17 nM.

Molecule B7 registered a Kd of 0.13 nM.

In the case of B8, binding was characterised by a dissociation constant (Kd) of 0.051 nM.

B9 displayed a Kd of 0.093 nM.

In turn, B10 registered a Kd of 0.11 nM.

As to B11, the Kd came out at 0.12 nM.

A further experiment has as its target T2, FcγRIIa R type extracellular domain …. The experiment is described as above. The protocol: as §1, §2
For the molecule B6, the affinity, expressed as Kd, was 250 nM.

As for B7, binding was put at a Kd of 250 nM.

B8: binding was characterised by a dissociation constant (Kd) of 280 nM.

Regarding B9, the Kd was determined as 330 nM.

In turn, B10 had a Kd of 230 nM.

In turn, B11 showed a dissociation constant (Kd) of 250 nM.

Another experiment addresses T3, FcγRIIa H type extracellular domain …. Described as above. As for the experimental part: as §1, §2
As to B6, the equilibrium dissociation constant (Kd) stood at 69 nM.

B7 had a Kd of 70 nM.

B8 came in with an equilibrium dissociation constant (Kd) of 70 nM.

The molecule B9 showed a Kd of 84 nM.

For B10, the affinity, expressed as Kd, was 61 nM.

Consider B11, for which the affinity, expressed as Kd, was 64 nM.

Another experiment deals with T4, FcγRIIb extracellular domain with …. Described as above. The protocol:
as §1, §2
B6: the Kd is 1300 nM.

On to B7, for which the Kd came out at 1400 nM.

Regarding B8, the Kd worked out at 2200 nM.

B9 returned a Kd of 1800 nM.

The molecule B10 registered an equilibrium dissociation constant (Kd) of 1400 nM.

In turn, B11 came in with a dissociation constant (Kd) of 1400 nM.

The target in another experiment is T5, FcγRIIIa F type extracellular domain …. The description is as above. The protocol: as §1, §2
B6 showed a dissociation constant (Kd) of 4.3 nM.

As for B7, the affinity, expressed as Kd, was 4.4 nM.

With B8, binding was characterised by a dissociation constant (Kd) of 3.7 nM.

Molecule B9 yielded a Kd of 4.2 nM.

Regarding B10, the Kd was 3 nM.

As to B11, the Kd amounted to 3.9 nM.

For another experiment, the target named is T6, FcγRIIIa V type extracellular domain …. The description is as above. The protocol: as §1, §2
B6 yielded a Kd of 1.1 nM.

Molecule B7 showed a Kd of 1 nM.

Molecule B8 showed a Kd of 0.78 nM.

With B9, the affinity, expressed as Kd, was 1.3 nM.

As to B10, the dissociation constant (Kd) worked out at 0.84 nM.

On to B11, for which the Kd came out at 1.1 nM.
